Experimental data taken from patent US7528106B2, “Compositions and methods for treatment of neovascular diseases” (The Scripps Research Institute, priority 2004, dated 2009).

Test system: deep retinal vascular network formation in neonatal Balb/C mice
Experiment: Neonatal mouse retinal angiogenesis model
Assay type: in vivo
Conditions: for % of eyes with 0-10% inhibition of deep vascular layer / % of eyes with 10-25% inhibition of deep vascular layer / % of eyes with 25-50% inhibition of deep vascular layer / % of eyes with 50-75% inhibition of deep vascular layer / % of eyes with 75-100% inhibition of deep vascular layer / % of eyes with 100% inhibition of deep vascular layer / % of eyes with >95% inhibition of deep vascular layer: intravitreal P4, read P12
Excerpt: Description of the Model. Immediately after birth (postnatal day zero; “P0”), retinal vasculature is virtually absent in the mouse. By four weeks after birth (P28) the retina has attained an adult pattern of retinal vessels coincident with the onset of vision. Physiological neovascularization of the retina occurs during this period via a stereotypical, biphasic developmental pattern of angiogenesis. During the primary phase of retinal vascular development, spoke-like peripapillary vessels grow radially from the central retinal artery and vein, becoming progressively interconnected by a capillary plexus that forms between them. This “inner retinal plexus” grows in area, volume and complexity, centrifugally, as a monolayer within the nerve fiber layer during the first seven to ten days following birth.
The second phase of retinal vessel formation begins between postnatal days 7 (P7) and 10 (P10) when collateral branches sprout from capillaries of the superficial plexus and penetrate into the retina where their tips branch and anastamose laterally to form a planar “deep vascular plexus”. While the deep vascular plexus is in place by P14, it undergoes extensive remodeling from P14 to P21. It is of interest to note that the formation of these vascular networks in the neonatal mouse are strikingly similar to the events occurring in the third trimester human fetus.
Advantages and Quantification of the Model. The reproducibility of the murine retinal development process and its easy accessibility in neonatal animals provide an opportunity to assess the efficacy of antiangiogenic compounds in a physiologically relevant model of angiogenesis. Additional advantages of the neonatal mouse model are the ability to qualitatively and quantitatively evaluate the angiostatic effect of putative antagonists of angiogenesis. Angiostatic activity was evaluated based upon the degree of angiogenesis in the deep, outer retinal vascular layer (secondary layer) that develops between P8 and P12. The appearance of the inner blood vessel network (primary layer) was evaluated for normal development and signs of toxicity.
Preparation of Compositions. Peptidomimetic integrin signaling inhibitor Compound (1) is solubilized in PBS at a concentration of about 20 mg/ml in PBS (1× concentration). T2-TrpRS is solubilized in PBS at a concentration of about 0.5 mg/ml (1× concentration). VEGF aptamer (pegaptanib sodium; Compound (2)) is solubilized in PBS at a concentration of about 2 mg/ml (1× concentration) to achieve an injection of approximately 1 μg/eye at 1× concentration. For all combination assays the compounds were prepared at 2 or 3 times the 1× concentration of each material and then combined to produce a final solution containing each individual compound at the same concentration as was used alone (e.g., 1×, 0.5×, 0.25× or 0.1×, as the case may be). For all assays, a single injection of 0.5 μl of PBS solutions of the drugs was administered intravitreally regardless of the number of compounds being injected. As used herein, the term “0.1×” refers to one tenth of the 1× concentration of a given material, “0.25×” refers to one quarter of the 1× concentration of a given material, “0.5×” refers to one half of the 1× concentration of a given material, and so forth for similar designations.
An in vivo angiogenesis assay in the neonatal mouse (Balb/C, The Jackson Laboratory, Bar Harbor, Me.) was used to evaluate the angiostatic activity of integrin signaling inhibitor Compound (1), T2-TrpRS, and VEGF aptamer Compound (2). Intravitreous injection and retina isolation was performed with a dissecting microscope (SMZ 645, Nikon, Japan). […] The samples (0.5 μl) were injected with a Hamilton syringe fitted with a 32-gauge needle (Hamilton Company, Reno, Nev.). The injection was made between the equator and the corneal limbus. During injection, the location of the needle tip was monitored by direct visualization to determine that it was in the vitreal cavity. […]

[1] = Ex 2, 0.1× of each (1×: T2-TrpRS 0.5, Comp. (2) 2 mg/ml)
[2] = Ex 3, 1× of each (T2-TrpRS 0.5, Comp. (2) 2 mg/ml)
[3] = Ex 6, 1× of each (T2-TrpRS 0.5, Comp. (2) 2 mg/ml)
[4] = Ex 7, 1× (T2-TrpRS 0.5, Comp. (2) 2 mg/ml)
[5] = Ex 9, 1× of each (Comp. (1) 20, Comp. (2) 2, T2-TrpRS 0.5 mg/ml)

B1: T2-TrpRS: 43 kDa angiostatic T2 fragment of human tryptophanyl-tRNA synthetase, SEQ ID NO: 1 (protein)
chain: MSAKGIDYDKLIVRFGSSKIDKELINRIERATGQRPHHFLRRGIFFSHRDMNQVLDAYENKKPFYLYTGRGPSSEAMHVGHLIPFIFTKWLQDVFNVPLVIQMTDDEKYLWKDLTLDQAYSYAVENAKDIIACGFDINKTFIFSDLDYMGMSSGFYKNVVKIQKHVTFNQVKGIFGFTDSDCIGKISFPAIQAAPSFSNSFPQIFRDRTDIQCLIPCAIDQDPYFRMTRDVAPRIGYPKPALLHSTFFPALQGAQTKMSASDPNSSIFLTDTAKQIKTKVNKHAFSGGRDTIEEHRQFGGNCDVDVSFMYLTFFLEDDDKLEQIRKDYTSGAMLTGELKKALIEVLQPLIAEHQARRKEVTDEIVKEFMTPRKLSFDFQ
modifications: homo sapiens
In the case of B1, the inhibition of neovascularization (0.1× concentrations (1 μg/eye integrin antagonist, 0.2 μg/eye VEGF aptamer, 0.025 μg/eye T2-TrpRS)) is reported as “negligible”, the “% of eyes with 0-10% inhibition of deep vascular layer” value [1] is reported as 50% and the “% of eyes with 10-25% inhibition of deep vascular layer” value [1] is reported as 37.5%. The “% of eyes with 25-50% inhibition of deep vascular layer” value [1] was 12.5%, the “% of eyes with 50-75% inhibition of deep vascular layer” value [1] was 0% and the “% of eyes with 75-100% inhibition of deep vascular layer” value [1] was 0%. For the same molecule, the “% of eyes with 100% inhibition of deep vascular layer” value [1] was 0%, the “% of eyes with >95% inhibition of deep vascular layer” value [1] was 0% and the “% of eyes with 0-10% inhibition of deep vascular layer” value [2] was 12.5%. For the same molecule, the “% of eyes with 10-25% inhibition of deep vascular layer” value [2] was 12.5%, the “% of eyes with 25-50% inhibition of deep vascular layer” value [2] was 0% and the “% of eyes with 50-75% inhibition of deep vascular layer” value [2] was 12.5%. The “% of eyes with 75-100% inhibition of deep vascular layer” value [2] was 62.5%, the “% of eyes with 100% inhibition of deep vascular layer” value [2] was 12.5% and the “% of eyes with >95% inhibition of deep vascular layer” value [2] was 12.5%. The “% of eyes with 0-10% inhibition of deep vascular layer” value (Ex 4, 1× (0.5 mg/ml)) was 12.5%, the “% of eyes with 10-25% inhibition of deep vascular layer” value (Ex 4, 1× (0.5 mg/ml)) was 37.5% and the “% of eyes with 25-50% inhibition of deep vascular layer” value (Ex 4, 1× (0.5 mg/ml)) was 12.5%. For the same molecule, the “% of eyes with 50-75% inhibition of deep vascular layer” value (Ex 4, 1× (0.5 mg/ml)) was 12.5%, the “% of eyes with 75-100% inhibition of deep vascular layer” value (Ex 4, 1× (0.5 mg/ml)) was 25% and the “% of eyes with 100% inhibition of deep vascular layer” value (Ex 4, 1× (0.5 mg/ml)) was 0%. The “% of eyes with >95% inhibition of deep vascular layer” value (Ex 4, 1× (0.5 mg/ml)) was 0%, the “% of eyes with 0-10% inhibition of deep vascular layer” value (Ex 5, 1× (0.5 mg/ml)) was 33.3% and the “% of eyes with 10-25% inhibition of deep vascular layer” value (Ex 5, 1× (0.5 mg/ml)) was 16.7%. For the same molecule, the “% of eyes with 25-50% inhibition of deep vascular layer” value (Ex 5, 1× (0.5 mg/ml)) was 33.3%, the “% of eyes with 50-75% inhibition of deep vascular layer” value (Ex 5, 1× (0.5 mg/ml)) was 0% and the “% of eyes with 75-100% inhibition of deep vascular layer” value (Ex 5, 1× (0.5 mg/ml)) was 16.7%. The “% of eyes with 100% inhibition of deep vascular layer” value (Ex 5, 1× (0.5 mg/ml)) was 0%, the “% of eyes with >95% inhibition of deep vascular layer” value (Ex 5, 1× (0.5 mg/ml)) was 16.7% and the “% of eyes with 0-10% inhibition of deep vascular layer” value [3] was 50%. For the same molecule, the “% of eyes with 10-25% inhibition of deep vascular layer” value [3] was 25%, the “% of eyes with 25-50% inhibition of deep vascular layer” value [3] was 12.5% and the “% of eyes with 50-75% inhibition of deep vascular layer” value [3] was 12.5%. The “% of eyes with 75-100% inhibition of deep vascular layer” value [3] was 0%, the “% of eyes with 100% inhibition of deep vascular layer” value [3] was 0% and the “% of eyes with >95% inhibition of deep vascular layer” value [3] was 0%. For the same molecule, the “% of eyes with 0-10% inhibition of deep vascular layer” value [4] was 25%, the “% of eyes with 10-25% inhibition of deep vascular layer” value [4] was 12.5% and the “% of eyes with 25-50% inhibition of deep vascular layer” value [4] was 12.5%. The “% of eyes with 50-75% inhibition of deep vascular layer” value [4] was 0%, the “% of eyes with 75-100% inhibition of deep vascular layer” value [4] was 50% and the “% of eyes with 100% inhibition of deep vascular layer” value [4] was 0%. For the same molecule, the “% of eyes with >95% inhibition of deep vascular layer” value [4] was 12.5%, the “% of eyes with 0-10% inhibition of deep vascular layer” value (Ex 8, 1× (0.5 mg/ml)) was 30% and the “% of eyes with 10-25% inhibition of deep vascular layer” value (Ex 8, 1× (0.5 mg/ml)) was 30%. For the same molecule, the “% of eyes with 25-50% inhibition of deep vascular layer” value (Ex 8, 1× (0.5 mg/ml)) was 20%, the “% of eyes with 50-75% inhibition of deep vascular layer” value (Ex 8, 1× (0.5 mg/ml)) was 10% and the “% of eyes with 75-100% inhibition of deep vascular layer” value (Ex 8, 1× (0.5 mg/ml)) was 10%. The “% of eyes with 100% inhibition of deep vascular layer” value (Ex 8, 1× (0.5 mg/ml)) was 0%, the “% of eyes with >95% inhibition of deep vascular layer” value (Ex 8, 1× (0.5 mg/ml)) was 0% and the “% of eyes with 0-10% inhibition of deep vascular layer” value [5] was 12.5%. For the same molecule, the “% of eyes with 10-25% inhibition of deep vascular layer” value [5] was 0%, the “% of eyes with 25-50% inhibition of deep vascular layer” value [5] was 25% and the “% of eyes with 50-75% inhibition of deep vascular layer” value [5] was 12.5%. The “% of eyes with 75-100% inhibition of deep vascular layer” value [5] was 50%, the “% of eyes with 100% inhibition of deep vascular layer” value [5] was 0% and the “% of eyes with >95% inhibition of deep vascular layer” value [5] was 12.5%. The “% of eyes with 0-10% inhibition of deep vascular layer” value (Ex 10, 0.1× (1×=0.5 mg/ml)) was 75%, the “% of eyes with 10-25% inhibition of deep vascular layer” value (Ex 10, 0.1× (1×=0.5 mg/ml)) was 25% and the “% of eyes with 25-50% inhibition of deep vascular layer” value (Ex 10, 0.1× (1×=0.5 mg/ml)) was 0%. For the same molecule, the “% of eyes with 50-75% inhibition of deep vascular layer” value (Ex 10, 0.1× (1×=0.5 mg/ml)) was 0%, the “% of eyes with 75-100% inhibition of deep vascular layer” value (Ex 10, 0.1× (1×=0.5 mg/ml)) was 0% and the “% of eyes with 0-10% inhibition of deep vascular layer” value (Ex 10, 0.3× (1×=0.5 mg/ml)) was 33.3%. For the same molecule, the “% of eyes with 10-25% inhibition of deep vascular layer” value (Ex 10, 0.3× (1×=0.5 mg/ml)) was 16.7%, the “% of eyes with 25-50% inhibition of deep vascular layer” value (Ex 10, 0.3× (1×=0.5 mg/ml)) was 8.3% and the “% of eyes with 50-75% inhibition of deep vascular layer” value (Ex 10, 0.3× (1×=0.5 mg/ml)) was 16.7%.
